From US20180086829A1 (published 2018)
Positions count from the first letter of the chain named. Like-named read-outs stand apart in the source and are kept apart here.

B1: anti-LILRB4 rabbit monoclonal antibody #120 (antibody, V domains shown)
VH: QSLEESGGRLVTPGTPLTLTCTVSGIDLNKYAMTWVRQAPGKGLEYIGFINIVGIAGYATWAKGRFTISKTSTTVDLKVTSPTTEDTATYFCARNWIRLDLWGQGTLVTVSS
VL: ELDLTQTPASVSAAVGGTVTISCQSSESLYKKNYLSWFQQKPGQPPKLLIFEASKLASGVPSRFSGSGSGTQFTLTISDVQCDDAASYYCLGDYTNGRDTTFGGGTEVVVK
B2: anti-LILRB4 rabbit monoclonal antibody #192 (antibody, V domains shown)
VH: EQSLEESGGGLVTPGGTLTLTCTVSGFSLSNNAMSWVRQAPGKGLEWIGVILLAGPTYYASWAKGRFTISKTSTTVDLKITSPTTEDTATYFCAIAIGSRPFALWGQGTLVTISS
VL: ELVLTQTPSSTSAAVGGTVTINCQSSQSVYSNWLSWFQQKPGQPPKPLIYLASTLASGVPSRFSGSGSGTQFTLTISDVQCDDAATYYCQGGYNGNIYTFGGGTEVVVK
B3: anti-LILRB4 rabbit monoclonal antibody #208 (antibody, V domains shown)
VH: B2 VH with L4V, A54S, P56T
VL: B2 VL with L4M
B4: anti-LILRB4 rabbit monoclonal antibody #161-2 (antibody, V domains shown)
VH: QSVKESGGRLVTPGTPLTLTCTVSGIDLSVYLMSWVRHSPGKGLEYIGFINSAGITAYATWAKGRFIISKTSTTVDLKVTSPTTEDTATYFCARNWIRLDLWGQGTLVTISS
VL: TQTPASVSAAVGGTVTISCQSSETIYKNYLSWFQQKPGQPPKLLIYESSKLASGVPSRFSGSGSGTQFTLTISDVQCDDAATYYCLGGYTDGRDTIFGGGTEVEIK
B5: anti-LILRB4 rabbit monoclonal antibody #161-1 (antibody, V domains shown)
VH: B4 VH
VL: ELDLTQTPASVSAAVGGTVTISCQSSETIYKNYLSWFQQKPGQPPKLLIYESSKLASGVPSRFSGSGSGTQFTLTISDVQCDDAATYYCLGGYTDGRDTIFGGGTELEIK
B6: anti-LILRB4 rabbit monoclonal antibody #78 (antibody, V domains shown)
VH: B4 VH with V3L, K4Q, H38Q
VL: B5 VL with D3V, T28S, S52T, D95N

Legend:
Assay in all cases: ELISA
[1] = target: T1, human LILRB4 (UniProt Q8NHJ6 22-259)
[2] = target: T1, human LILRB4; remark: listed apart in the source
[3] = target: T1, human LILRB4; remark: listed apart in the source

T1 sequence (Q8NHJ6 22-259): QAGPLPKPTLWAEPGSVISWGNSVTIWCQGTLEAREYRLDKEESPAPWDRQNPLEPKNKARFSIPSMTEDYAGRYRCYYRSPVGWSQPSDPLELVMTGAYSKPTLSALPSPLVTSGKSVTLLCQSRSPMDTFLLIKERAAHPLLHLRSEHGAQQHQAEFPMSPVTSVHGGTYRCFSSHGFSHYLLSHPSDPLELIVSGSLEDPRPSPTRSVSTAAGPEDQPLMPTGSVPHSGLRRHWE

Row | Binder | EC50 [1] | EC50 [2] | EC50 [3]
1 | B1 | 0.0119 µg/mL | – | –
2 | B2 | – | 0.021 µg/mL | –
3 | B3 | – | – | 0.0198 µg/mL
4 | B4 | – | – | 0.0126 µg/mL
5 | B5 | – | 0.0104 µg/mL | –
6 | B6 | 0.0121 µg/mL | – | –
